These results are taken from patent US20180335433A1, “COMPOSITIONS TARGETING PKC-THETA AND USES AND METHODS OF TREATING PKC-THETA PATHOLOGIES, ADVERSE IMMUNE RESPONSES AND DISEASES” (La Jolla Institute for Allergy and Immunology, priority 2011, published 2018).

Assay [1] has as its system Th2-mediated lung inflammation. The assay is described as follows: Th2-mediated Ova-induced airway inflammation after adoptive transfer of transduced OT-II Th2 cells. The format is in vivo, mouse. Particulars: transferred Th2 cells, aerosolized Ova 3 consecutive days. The text has this:
(FIG. 7A-7D) OT-II CD4^+ T cells stimulated with anti-CD3 plus anti-CD28 mAbs and differentiated in vitro under Th2 (FIG. 7A-7C) or Th1 (FIG. 7D, 7E)-polarizing conditions were retrovitrally transduced with the same PKCθ V3 vectors as in FIG. 6. Sorted GFP^+ populations were adoptively transferred into naïve B6 mice, which were challenged with aerosolized Ova for 3 consecutive days. BAL fluid were obtained 1 d post-challenge and analyzed for total mononuclear cell infiltration (FIG. 7A, 7D) and cytokine expression using IL-4 (FIG. 7B), IL-5 (FIG. 7C) and IFN-γ (FIG. 7E) ELISA.
CD4^+ T cells from OT-II B6 mice were isolated and cultured with plate-bound anti-CD3 (5 μg/ml), soluble anti-CD28 (2.5 μg/ml) and IL-2 (100 U/ml) under Th1 or Th2 polarizing conditions. The cells were retrovirally infected on days 2-4 and cultured for an additional 3 days. GFP^+ cells were sorted, and 1×10^6 cells were injected intravenously into naïve WT B6 mice. One day later, mice received aerosolized Ova (5 mg/ml in 20 ml PBS) for 30 min, once a day for 3 consecutive days, using ultrasonic nebulization. Mice were sacrificed 24 h after the last challenge and assessed for lung inflammation. Collection of BAL fluid and determination of cytokine levels were carried out as described (Salek-Ardakani, S. et al. J Immunol 173, 6440-6447 (2004)).
The above findings were extended to an in vivo antigen-specific inflammatory response in an airway inflammation model, using a T cell adoptive transfer system. Mice receiving OT-II Th2 cells transduced with an empty vector developed an inflammatory response by comparison with PBS-challenged control mice, as evidenced by a significant increase in the number of infiltrating leukocytes in the bronchoalveolar lavages (BAL) fluid (FIG. 7a) and in the levels of signature Th2 cytokines, IL-4 (FIG. 7b) and IL-5 (FIG. 7c).

The test system of assay [2] is Naïve CD4+ T cells from B6 mice, Treg (FoxP3+) cells. Briefly: In vitro Treg (FoxP3+) differentiation of retrovirally transduced CD4+ T cells. The format is cell-based, mouse. Particulars: Treg-polarizing conditions (IL-2+TGFβ), GFP+FoxP3+ cells. The protocol:
Naïve CD4+ T cells from B6 mice stimulated with anti-CD3 plus anti-CD28 mAbs and differentiated in vitro under Treg-polarizing conditions (IL-2+TGFβ) were retrovirally transduced with empty pMIG vector, or with the indicated PKCθ V3 vectors. Transduced (GFP+) cells were sorted and FoxP3+ cells were analyzed by intracellular staining.
Naïve CD4^+ T cells from B6 mice stimulated with anti-CD3 plus anti-CD28 mAbs and differentiated in vitro under Treg-polarizing conditions (IL-2+TGFβ) were retrovirally transduced with empty pMIG vector, or with the indicated PKCθ V3 vectors. Transduced (GFP+) FoxP3+ cells were analyzed by intracellular staining 8 hours after restimulation. Right panels represent cumulative data showing percentage of GFP+FoxP3+ cells by intracellular staining.

A further assay concerns endogenous PKCθ. The assay is described as follows: IS localization in OT-II CD4+ T cells conjugated with Ova-loaded APCs (confocal). The format is cell-based, mouse. Particulars: OT-II TCR-Tg CD4+ T cells. The protocol: (FIG. 6A) OT-II CD4^+ T cells were infected with retrovirus expressing Myc-tagged V3 domain, V3 mutated at P330/1/4/6A (V3-4PA), or PR motif-deleted V3 (V3-ΔPR). Infected cells (green) were harvested, stimulated, and fixed. Conjugates were stained with anti-Myc plus a secondary Alexa 555-coupled antibody (orange), and anti-PKCθ plus a secondary Alexa 647-coupled antibody (red). Cells were analyzed as in FIG. 1A. (FIG. 6B) Quantitative analysis of the results shown in (FIG. 6A) from 30-50 T-APC conjugates. ** p<0.05. (FIG. 6C) MCC-specific T hybridoma cells were cotransfected with indicated vector, together with RE/AP-Luc and β-Gal reporter plasmids. Cells were stimulated and analyzed as in FIG. 1C. (FIG. 6D) Naïve CD4^+ T cells from B6 mice stimulated with anti-CD3 plus anti-CD28 mAbs and differentiated in vitro under Th1-, Th2- or Th17-polarizing conditions were retrovirally transduced with empty pMIG vector, or with the indicated PKCθ V3 vectors. Cytokine-producing cells were analyzed by intracellular staining 8 h after restimulation. Right panels represent cumulative data showing percentage of cytokine-producing cells by intracellular staining. (FIG. 6E) MCC-specific T hybridoma cells were cotransfected with the indicated plasmids, together with NFAT luciferase reporter and a β-Gal reporter plasmid. Cells were incubated with fibroblasts that express I-E^K and B7-1 in the absence or presence of MCC peptide for 6 hrs. Normalized luciferase activity was determined in triplicates.
Full-length human PKCθ and its derivatives were cloned as a GFP fusion protein in the pMX retroviral vector. Retroviral supernatants were used to infect preactivated CD4^+ T cells from PKCθ^−/− or WT OT-II mice. Transduced cells were rested for an additional three days. On the day of experiment, APC were prepared from WT B6 splenocytes that were depleted of CD4^+ T cells using anti-CD4 (L3T4) mAb-coated beads. T-depleted APC were stained with 20 μM of cell tracker blue (CMAC) and then pulsed with 5 μM Ova peptide, respectively, for 30 min at 37° C. T cell-APC conjugation was carried out at 37° C. for 20 min before fixation with 4% paraformaldehyde and permeabilization with PBS supplemented with 1% BSA and 0.1% Triton X-100. […] Immunofluorescene images were captured using a Marianas digital fluorescence-microscopy system (Intelligent Imaging Innovations) as described (Becart, S. et al. Immunity 29, 704-719 (2008)).
Given the critical role of the PKCθ V3 domain in the enzyme's CD28 association, IS localization, and activation of downstream targets, ectopic expression of the isolated V3 domain was analyzed for interference with the localization and function of PKCθ in stimulated T cells. […]

B1: V3-4PA: V3 mutated at P330/1/4/6A (4 Pro residues in the Pro-rich motif to Ala) (protein)
chain: MSPFLRIGLSNFDCGSCQSCQGEAVNPYCAVLVKEYVESENGQMYIQKKPTMYPPWDSTFDAHINKGRVMQIIVKGKNVDLISETTVELYSLAERCRKNNGKTEIWLELKPQGRMLMNARYFLEMSDTKDMNEFETEGFFALHQRRGAIKQAKVHHVKCHEFTATFFPQPTFCSVCHEFVWGLNKQGYQCRQCNAAIHKKCIDKVIAKCTGSAINSRETMFHKERFKIDMPHRFKVYNYKSPTFCEHCGTLLWGLARQGLKCDACGMNVHHRCQTKVANLCGINQKLMAEALAMIESTQQARCLRDTEQIFREGPVEIGLPCSIKNEARAACLATAGKREPQGISWESPLDEVDKMCHLPEPELNKERPSLQIKLKIEDFILHKMLGKGSFGKVFLAEFKKTNQFFAIKALKKDVVLMDDDVECTMVEKRVLSLAWEHPFLTHMFCTFQTKENLFFVMEYLNGGDLMYHIQSCHKFDLSRATFYAAEIILGLQFLHSKGIVYRDLKLDNILLDKDGHIKIADFGMCKENMLGDAKTNTFCGTPDYIAPEILLGQKYNHSVDWWSFGVLLYEMLIGQSPFHGQDEEELFHSIRMDNPFYPRWLEKEAKDLLVKLFVREPEKRLGVRGDIRQHPLFREINWEELERKEIDPPFRPKVKSPFDCSNFDKEFLNEKPRLSFADRALINSMDQNMFRNFSFMNPGMERLIS
As for B1, in assay [1], the “inhibition of the Th2 inflammatory response” value is “partially rescued the inhibition”. Further, in assay [2], the “promotion of Treg differentiation” value was “not”. Moreover, in the assay on endogenous PKCθ, the “effect on IS localization of endogenous PKCθ” value is reported as “did not interfere with the IS localization of endogenous PKCθ” and the “subcellular localization of the transduced V3 protein” value is listed as “did not localize anymore in the IS”.
